In the assay the target is HA-tagged PHB2 alanine mutant at Ser39 (S39A) (human) (UniProt Q99623). The assay is described as follows: anti-HA IP of nuclear extracts of transfected SK-BR-3 cells after 1 µM stERAP, immunoblot. In general terms: A western blot detects proteins with antibodies after separation by electrophoresis.

NcoR, O75376 1-2440 returned a reduction rate of binding against WT of 82%.

These data come from patent publication US20200255474A1.
